Results reported in paper PMC2904831 (Journal of molecular biology, 2010).
Like-named read-outs stand apart in the source and are kept apart here. Where no end group is shown, it is not given here. [ ]: non-standard residue; d: D form. pS = N[C@@H](COP(=O)(O)O)C(=O)O

What was measured:
[1] = test system: pMART-1-specific CD4+ T cell clone D7-F6; assay: Recognition of peptide-pulsed HLA-DR1+ EBV-B cells by CD4+ T cell clone D7-F6; assay type: cell-based, human; conditions: ELISA
[2] = test system: pMART-1-specific CD4+ T cell line D7; assay: Recognition of titrated peptides on HLA-DR1+ APC by CD4+ T cell line D7; assay type: cell-based, human; conditions: T cell line D7, peptide 25 μM, ELISA; Fig. 4b
[3] = biological target: HLA-DR1 (HLA-DRβ1*0101) purified from the EBV-transformed homozygous B lymphoblastoid cell line LG2 (human); assay: radioligand binding
[4] = biological target: HLA-DR1 (HLA-DRβ1*0101) purified from the EBV-transformed homozygous B lymphoblastoid cell line LG2 (human); assay: radioligand binding; remark: listed apart in the source

Question: PKYVKQNTLKLAT [HA307-319] was tested. Which “GM-CSF secretion from T cells + APC + peptide” value (“GM-CSF secretion” for short) ([1]; clone D7-F6, HLA-DR1+ 2048-EBV cells pre-pulsed with peptide 25 μM, overnight, Fig. 3) did it give?
Answer: The value was under 15 pg/mL.

Question: What about the “GM-CSF secretion” value ([1]; clone D7-F6, peptide 15 μM, Fig. 4a) of the same molecule?
Answer: Its value is under 20 pg/mL.

Question: And the “GM-CSF secretion” value [2]?
Answer: Its value is 0.7 ng/mL.

Question: With “pMART-1_(98–109) phosphopeptide (from UniProt Q16655 98-109)” as the molecule, how does the fold decrease in other [3] read?
Answer: Its fold decrease in other is under 2 fold.

Question: For “pMART-1_(100–116) phosphopeptide (from UniProt Q16655 100-116)”, which IC50 [3] is on record?
Answer: The IC50 was 327 nM.

B1: pMART-1_(100–114) phosphopeptide (peptide)
peptide: APPAYEKL[pS]AEQSPP
Question: For B1, which IC50 [4] is on record?
Answer: The IC50 was 102 nM.

B2: pMART-1_(100–115) phosphopeptide (peptide)
peptide: APPAYEKL[pS]AEQSPPP
Question: How did the IC50 [4] turn out when B2 was run?
Answer: Its IC50 is 142 nM.

B3: pMART-1_(100–111) phosphopeptide (peptide)
peptide: APPAYEKL[pS]AEQ
Question: B3 was tested. Which IC50 [4] did it give?
Answer: Its IC50 is 459 nM.
